Data from publication PMC3012076.

How the values were obtained:
[1] = target: Lig A9 (9th tandem Big repeat of LigA) (L. interrogans serovar Pomona); assay: SEC; Superose 12 10/300 GL, 25 mM HEPES pH 7.0, 50 mM KCl, with and without 3 mM CaCl2; column calibrated with molecular mass markers; self-association, monomer to dimer
[2] = target: Lig A10 (10th tandem Big repeat of LigA) (L. interrogans serovar Pomona); assay: as above
[3] = target: LigBCen2 (L. interrogans serovar Pomona); assay: SEC; Superose 12 10/300 GL, 50 mM Tris pH 7.0, 50 mM KCl, with and without 3 mM CaCl2; column calibrated with molecular mass markers; self-association, monomer to dimer

Lig A9 (9th tandem Big repeat of LigA) (domain or fragment)
stoichiometry N [1]: 2

Lig A10 (10th tandem Big repeat of LigA) (domain or fragment)
stoichiometry N [2]: 2

LigBCen2 (domain or fragment)
stoichiometry N [3]: 2
